The values that follow come from patent US20040241164A1.

The target of one assay is Soluble Aβ 1-40 (UniProt P05067). Briefly: BIAcore 2000 SPR, antibody captured by anti-Ig, soluble Aβ in flow. On the technique in general: Surface plasmon resonance follows binding to a sensor surface in real time, without labels.
Another assay concerns the target Soluble Aβ 1-42 (UniProt P05067). The assay is described as above.

By Kd is commonly meant the concentration at which binding is half-saturated. A higher Kd goes with weaker binding. For the substance Murine anti-Aβ antibody 266, the Kd with Soluble Aβ 1-40 and with Soluble Aβ 1-42 was 0.004 nM in each case.
Turning to anti-Aβ murine antibody 4G8, the Kd came out at 23 nM with Soluble Aβ 1-40 and 24 nM in the assay with Soluble Aβ 1-42.
The substance anti-Aβ murine antibody 21F12 gave a Kd with Soluble Aβ 1-42 of 4.4 nM.
